Earlier results on one substance are cited in publication PMC9222382.

The data set has as its target IL-10Rα (Homo sapiens) (UniProt Q13651).
UniProt Q13651, sequence (Q13651 22-235): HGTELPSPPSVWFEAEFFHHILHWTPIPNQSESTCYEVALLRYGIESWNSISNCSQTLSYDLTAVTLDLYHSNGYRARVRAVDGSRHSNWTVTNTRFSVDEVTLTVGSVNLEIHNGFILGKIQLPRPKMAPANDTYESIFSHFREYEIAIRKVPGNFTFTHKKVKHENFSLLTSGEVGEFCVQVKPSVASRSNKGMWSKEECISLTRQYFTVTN

Consider IL-10 (from UniProt P22301), for which the Kd is 1 nM.

Usually Kd stands for the equilibrium constant for the complex coming apart.
